# Results reported in paper PMC3912200, “Structural and Functional Characterization of Cargo-Binding Sites on the μ4-Subunit of Adaptor Protein Complex 4” (PLoS ONE, 2014).
# Substitutions are numbered along the chain they refer to. Numbers in names are those of the source.
# B1: D190A: μ4 mutant, μ2-binding site, Y2H construct (protein)
# chain: MISQFFILSSKGDPLIYKDFRGDSGGRDVAELFYRKLTGLPGDESPVVMHHHGRHFIHIRHSGLYLVVTTSENVSPFSLLELLSRLATLLGDYCGSLGEGTISRNVALVYELLDEVLDYGYVQTTSTEMLRNFIQTEAVVSKPFSLFDLSSVGLFGAETQQSKVAPSSAASRPVLSSRSDQSQKNEVFLAVVERLSVLIASNGSLLKVDVQGEIRLKSFLPSGSEMRIGLTEEFCVGKSELRGYGPGIRVDEVSFHSSVNLDEFESHRILRLQPPQGELTVMRYQLSDDLPSPLPFRLFPSVQWDRGSGRLQVYLKLRCDLLSKSQALNVRLHLPLPRGVVSLSQELSSPEQKAELAEGALRWDLPRVQGGSQLSGLFQMDVPGPPGPPSHGLSTSASPLGLGPASLSFELPRHTCSGLQVRFLRLAFRPCGNANPHKWVRHLSHSDAYVIRI
# modifications: left off: Gal4 activation domain, end not stated, kept
# B2: µ4-F255A: untagged full-length μ4-F255A, overexpressed (protein, UniProt O00189 1-453, looked up, variant F255A)
# chain: B1 chain with A190D, F255A
# modifications: full-length
# notes: untagged full-length μ4-F255A, overexpressed
# Experiments:
# [1] = test system: cytosolic tail of APP; experiment: Yeast two-hybrid (Y2H) analysis of μ4 with the APP tail; assay type: binding; details: mutations at μ2-binding site; growth on -His plates, 30°C
# Excerpt: The cloning of the tail of APP (residues 649–695), full-length human μ4, and all the other yeast two-hybrid (Y2H) constructs, and the cloning of the C-terminal domain of μ4 for expression in E. coli was described previously. To generate a construct for mammalian expression, full-length human μ4 was obtained by PCR amplification and cloned into the EcoRI and SalI sites of pEGFP-N1 (BD BiosciencesClontech, Mountain View, CA) including a stop-codon before the GFP coding sequence. The cloning of APP-GFP carrying the double mutation F615P/D664A was described previously. Single amino acid substitutions were introduced using the QuikChange mutagenesis kit (Stratagene, La Jolla, CA). Y2H assays were performed as previously described. A set of pCI-neo (Promega) constructs encoding hemagglutinin (HA)-epitope tagged wild-type or mutants of human μ4 was a generous gift of J. Bonifacino and R. Mattera (Cell Biology and Metabolism Program, NICHD, NIH). The nucleotide sequences of all recombinant constructs were confirmed by dideoxy sequencing.
# Figure 1 Yeast two-hybrid analysis of the interaction of μ4 with the cytosolic tail of APP. (A) Superposition of the surface and ribbon representations of human wild-type μ4 C-terminal domain (pdb entry 3L81). The insets show an enlargement of the μ4-binding site and the putative μ2-binding site with residues chosen for the yeast two-hybrid (Y2H) analysis. The APP peptide (TYKFFEQ; stick model) bound to the μ4-binding site is in yellow, and the EGFR peptide (FYRALM; stick model; pdb entry 1BW8) superposed to the putative μ2-binding site is in magenta. (B) Sequence alignment of the C-terminal domain of the μ subunits of known crystal structure depicting critical residues at the corresponding μ2- and μ4-binding sites. Disordered loops are in yellow letters, and arrows and cylinders represent β-strands and α-helices, respectively. M.m., Mus musculus; R.n., Rattus norvegicus; H.s., Homo sapiens. (C) and (D) Yeast were co-transformed with plasmids encoding Gal4bd fused to the cytosolic tail of the amyloid precursor protein (APP) indicated on the left, and Gal4ad fused to wild-type or mutant μ4 constructs indicated on top of each panel. (C) Y2H analysis of μ4 with mutations on the YKFFE binding site (μ4-binding site). (D) Y2H analysis of μ4 with mutations on a putative YXXØ binding site (μ2-binding site). Mouse p53 fused to Gal4bd and SV40 large T antigen (T Ag) fused to Gal4ad were used as controls. Co-transformed cells were spotted onto His-deficient (-His) or His-containing (+His) plates and incubated at 30°C. Growth is indicative of interactions. Some mutations on either of the two sites affect the interaction of μ4 with the cytosolic tail of APP.
# [2] = test system: canonical YXXØ signals; details: previous reports; ref [31]; cited from earlier work
# Excerpt: This tyrosine-based signal is related to the YXXØ motif, which is the signal contained in the cytosolic tail of transmembrane proteins that binds to a different site on the μ2 subunit of AP-2 [28], or on the μ3A subunit of AP-3 [30]. In this study, we wanted to determine whether this putative second binding site on μ4, referred here as the μ2-binding site (Figure 1, A and B), played any role in the binding to the YKFFE signal of APP ...
# [3] = test system: APP-GFP; experiment: Distribution of APP-GFP in H4 neuroglioma cells; assay type: cell-based, human; details: untagged; 36 h; APP-GFP F615P/D664A; TGN46, EEA1 staining
# Description: H4 human neuroglioma or MDA-MB-231 human mammary gland epithelial cells obtained from the American Type Culture Collection (Manassas, VA) were maintained in DMEM (H4) or DMEM/F12 (MDA-MB-231) supplemented with 10% (v/v) fetal bovine serum (FBS), 100 U/ml penicillin and 100 µg/ml streptomycin (Life Technologies). Transfections were carried out using Lipofectamine 2000 (Life Technologies) for 1 h at 37°C in the absence of FBS, and cells were analyzed 16, 24 or up to 36-h after transfection, for which we observed no notorious signs of loss in cell viability. SDS-PAGE, immunoblotting, and immunoprecipitation were performed as described. […]
# Indirect immunofluorescence staining of fixed, permeabilized cells was performed as previously described, using sheep polyclonal antibody anti-TGN46 (Serotec), and mouse monoclonal antibody anti-EEA1 (BD Biosciences) or rabbit polyclonal antibody anti-EEA1 (Santa Cruz Biotechnology), followed by the secondary antibodies Alexa-647–conjugated donkey anti-mouse IgG, Alexa-594–conjugated donkey anti-rabbit IgG, or Alexa-594– or -647–conjugated donkey anti-sheep IgG (Life Technologies). […] Quantitative analysis of colocalization was performed as we previously described, with minor modifications. […]
molecule,measurement,setting,value
B1,effect of mutation on interaction of the APP tail with μ4 (Y2H),[1],abrogated
same,interaction of μ4 mutant with canonical YXXØ signals,[2],loss of these interactions
B2,APP redistribution (figure title),[3],APP redistributes from endosomes to the TGN
